{"source": "paper PMC3406708", "target": "integrin α2β1 on human platelets (human (endogenous in platelets)) (UniProt P17301)", "sequence (P17301 30-1181, chain 1 of 2)": "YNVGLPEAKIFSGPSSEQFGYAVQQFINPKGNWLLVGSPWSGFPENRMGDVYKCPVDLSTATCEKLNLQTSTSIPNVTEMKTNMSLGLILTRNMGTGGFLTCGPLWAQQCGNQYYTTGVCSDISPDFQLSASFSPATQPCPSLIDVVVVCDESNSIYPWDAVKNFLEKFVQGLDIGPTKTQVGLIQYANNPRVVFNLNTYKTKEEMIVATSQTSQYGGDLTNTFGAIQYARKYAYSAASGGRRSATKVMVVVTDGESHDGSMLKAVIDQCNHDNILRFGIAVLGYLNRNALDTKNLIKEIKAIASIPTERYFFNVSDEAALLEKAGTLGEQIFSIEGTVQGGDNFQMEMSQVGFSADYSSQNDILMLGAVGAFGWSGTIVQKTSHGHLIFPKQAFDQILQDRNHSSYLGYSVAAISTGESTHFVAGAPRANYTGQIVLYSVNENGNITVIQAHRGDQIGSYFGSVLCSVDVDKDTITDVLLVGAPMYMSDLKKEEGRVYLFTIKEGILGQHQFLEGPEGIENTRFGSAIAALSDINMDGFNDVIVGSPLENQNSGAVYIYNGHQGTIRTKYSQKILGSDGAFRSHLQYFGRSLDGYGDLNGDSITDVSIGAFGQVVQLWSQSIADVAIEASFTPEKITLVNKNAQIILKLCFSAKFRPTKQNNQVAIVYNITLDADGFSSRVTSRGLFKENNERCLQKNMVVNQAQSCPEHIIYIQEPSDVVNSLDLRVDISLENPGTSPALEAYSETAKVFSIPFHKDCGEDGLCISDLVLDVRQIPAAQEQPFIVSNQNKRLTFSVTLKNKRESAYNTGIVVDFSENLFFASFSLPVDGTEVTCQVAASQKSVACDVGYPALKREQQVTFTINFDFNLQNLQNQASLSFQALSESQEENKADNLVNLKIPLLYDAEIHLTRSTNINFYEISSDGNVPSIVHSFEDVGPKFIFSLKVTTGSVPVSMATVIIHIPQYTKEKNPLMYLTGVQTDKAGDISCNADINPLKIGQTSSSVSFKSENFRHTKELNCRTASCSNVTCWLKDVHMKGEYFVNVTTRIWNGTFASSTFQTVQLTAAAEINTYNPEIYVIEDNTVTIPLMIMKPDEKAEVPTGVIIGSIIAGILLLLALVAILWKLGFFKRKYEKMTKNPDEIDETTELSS", "sequence (P05556 21-798, chain 2 of 2, further chain)": "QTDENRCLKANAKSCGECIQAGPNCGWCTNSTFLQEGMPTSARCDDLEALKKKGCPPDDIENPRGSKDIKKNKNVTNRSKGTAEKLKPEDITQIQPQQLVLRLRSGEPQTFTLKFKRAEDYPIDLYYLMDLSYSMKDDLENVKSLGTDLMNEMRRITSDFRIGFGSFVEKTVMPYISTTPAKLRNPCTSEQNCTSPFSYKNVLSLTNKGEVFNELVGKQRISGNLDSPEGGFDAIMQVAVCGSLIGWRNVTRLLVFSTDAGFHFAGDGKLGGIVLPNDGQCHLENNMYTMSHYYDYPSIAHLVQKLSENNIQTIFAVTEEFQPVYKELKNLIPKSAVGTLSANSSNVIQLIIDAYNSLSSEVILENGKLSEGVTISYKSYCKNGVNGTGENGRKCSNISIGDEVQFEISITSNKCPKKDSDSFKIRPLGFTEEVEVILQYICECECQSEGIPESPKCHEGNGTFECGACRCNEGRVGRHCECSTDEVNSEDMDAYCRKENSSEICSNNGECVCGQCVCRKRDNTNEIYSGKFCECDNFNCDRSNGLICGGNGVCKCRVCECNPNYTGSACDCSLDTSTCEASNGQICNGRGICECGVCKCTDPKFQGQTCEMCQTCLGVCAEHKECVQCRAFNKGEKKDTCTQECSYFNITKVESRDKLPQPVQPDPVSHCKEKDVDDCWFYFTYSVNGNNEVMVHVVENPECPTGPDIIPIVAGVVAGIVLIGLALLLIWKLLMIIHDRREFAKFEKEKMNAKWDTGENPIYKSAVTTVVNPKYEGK", "experiment": "flow cytometry on cells"}
{"substance": "Rhinocetin (heterodimeric snaclec from the venom of Bitis gabonica rhinoceros) (complex)", "values": [{"measurement": "percent inhibition of 6F1 antibody binding at 50 μg/ml", "result": 65, "unit": "%"}, {"measurement": "percent inhibition of 6F1 antibody binding at 100 μg/ml", "result": 90, "unit": "%"}]}
